# Measurements taken from paper PMC5778702.
# Target: pCMV-HA-H (HA-H), hemagglutinin (H) protein of Peste des petits ruminants virus with HA tag (Peste des petits ruminants virus)
# Assay: SPR; […]; Biacore 3000, 25 °C, HBS-EP (10 mM HEPES pH 7.4, 150 mM NaCl, 3 mM EDTA, 0.005% P20); […]
Substance,Kd [nM],koff [s⁻¹],kon [M⁻¹ s⁻¹]
"pCMV-HA-F (HA-F), fusion (F) protein of Peste des petits ruminants virus with HA tag (natural protein)",19.1,0.000937,49100
"pCMV-HA-HRA (HA-HRA), heptad repeat region A of the PPRV F protein with HA tag (domain or fragment)",108000,0.00414,38.2
"pCMV-HA-HRB (HA-HRB), heptad repeat region B of the PPRV F protein with HA tag (domain or fragment)",260,0.00299,11500
